Test results reported in US20120122765A1, “COMPOUNDS AND RELATED METHODS FOR MANIPULATING PARP-1-DEPENDENT CELL DEATH” (priority 2010, published 2012).
Positions count from the first letter of the chain named. Entries after “also recorded” stand apart in the source; their conditions may differ.

B1: His-Pbm-AIF: His tagged Pbm-AIF (protein, UniProt Q9Z0X1 1-612, looked up, variant R588A K589A K592A)
chain: MFRCGGLAGAFKQKLVPLVRTVYVQRPKQRNRLPGNLFQQWRVPLELQMARQMASSGSSGGKMDNSVLVLIVGLSTIGAGAYAYKTIKEDQKRYNERVMGLGLSPEEKQRRAIASATEGGSVPQIRAPSHVPFLLIGGGTAAFAAARSIRARDPGARVLIVSEDPELPYMRPPLSKELWFSDDPNVTKTLQFRQWNGKERSIYFQPPSFYVSAQDLPNIENGGVAVLTGKKVVHLDVRGNMVKLNDGSQITFEKCLIATGGTPRSLSAIDRAGAEVKSRTTLFRKIGDFRALEKISREVKSITVIGGGFLGSELACALGRKSQASGIEVIQLFPEKGNMGKILPQYLSNWTMEKVKREGVKVMPNAIVQSVGVSGGRLLIKLKDGRKVETDHIVTAVGLEPNVELAKTGGLEIDSDFGGFRVNAELQARSNIWVAGDAACFYDIKLGRRRVEHHDHAVVSGRLAGENMTGAAKPYWHQSMFWSDLGPDVGYEAIGLVDSSLPTVGVFAKATAQDNPKSATEQSGTGIRSESETESEASEITIPPSAPAVPQVPVEGEDYGKGVIFYLRDKVVVGIVLWNVFNRMPIAAAIIADGEQHEDLNEVAKLFNIHED
modifications: full-length His tag
B2: WT-AIF-Flag: C-terminal Flag-tagged mouse wild type AIF, delivered by lentivirus, AAV2 or transfection (protein, UniProt Q9Z0X1 1-612, looked up)
chain: B1 chain with A588R, A589K, A592K
modifications: full-length C-terminal Flag tag
notes: C-terminal Flag-tagged mouse wild type AIF, delivered by lentivirus, AAV2 or transfection

Columns and labels:
[1] = NADH oxidase activity of AIF; type: biochemical; details: compared to His-WT-AIF
Protocol: Unless otherwise set forth herein, the determination of NADH Oxidase Activity and FAD binding of AIF in the various examples below was performed using the following materials and procedures. AIF's NADH oxidase activity was determined as previously described by M. Miramar et al. (J Biol Chem, 2001). In brief, the NADH oxidase activity was measured at room temperature in substrate solution containing 250 μM NADH in air-saturated 50 mM Tris-HCl, pH 8.0. The decrease in absorbance at OD340 nm was monitored right after the addition of recombinant His-tagged AIF into the substrate solution. In situ redox activity of recombinant His-tagged AIF was performed as previously described by J. Gagne et al. (Nucleic Acids Res, 2008). […] FAD binding to AIF was monitored at 13 μM concentration of His-tagged AIF by wave length scanning ranging from 250-800 nm using Beckman Coulter DU800 UV/Vis spectrophotometer.
Independent of its role in parthanatos, AIF has NADH (the reduced form of nicotinamide adenine dinucleotide) oxidase activity, binds to FAD (flavin adenine dinucleotide) and DNA, and causes nuclear condensation. To determine whether the triple amino acid mutation found in Pbm-AIF interferes with these properties, Applicants assessed the NADH oxidase activity, FAD-binding capacity, and DNA-binding capacity of full-length His-WT-AIF and His-Pbm-AIF. […]

PAR [2] = assay: nitrocellulose saturation binding experiments; details: result in words
Source text: Applicants thereafter repeated the experiments using both wild type and mutant AIFm peptides spanning only amino acids 567-592 instead of full length AIFm and obtained results consistent with those using full-length AIF. […] The double amino acid mutant Dm (corresponding to only amino acids 567-592 of AIF-Dm so as to consist of SEQ. ID NO. 16) bound PAR. […] Thus, it is preferred in embodiments of the invention when conducting genetic manipulations to convert at least three target basic amino acids in the PBM to hydrophobic amino acids.
The PAR polymer binding properties of the mutant Pbm-AIF was then measured using full-length recombinant His-WT-AIF and His tagged Pbm-AIF (“His-Pbm-AIF”) via a series of nitrocellulose saturation binding experiments. Similar experiments were also conducted for the shorter peptides Dm and Tm in comparison to WT. FIG. 10B through FIG. 10D comprise charts reporting data from these various experiments. With regard to the shorter peptides, Applicants determined that the binding affinity constant (“Kd”) and maximum binding capacity (“Bmax”) of these AIF mimetic peptides and the results are reported in the chart of FIG. 10B. […] FIG. 10D comprises a Scatchard plot (95% confidence interval) of the results.

DNA = DNA retardation assay; type: binding; details: DNA (200 ng), 30 minutes
Protocol: AIF binding-mediated DNA mobility retardation was performed as described by H. Cande et al. (Nat Struct Biol, 2002). Recombinant His-tagged AIF (10 μg or 25 μg) was incubated with 1 kb DNA molecular weight marker (obtained from Fermentas) for 30 minutes at room temperature and loaded on 2.5% agarose gel prestained with ethidium bromide (1 μg/ml). Mobility shift was visualized under the Alpha Innotech UV illuminator.
Further, a DNA retardation assay of His-WT-AIF and His-Pbm-AIF was conducted by incubating both with DNA (200 ng) for 30 minutes, using BSA as a negative control.

[3] = FAD binding by spectrophotometric wave length scanning; details: His-Pbm-AIF versus His-WT-AIF
Protocol: Unless otherwise set forth herein, the determination of NADH Oxidase Activity and FAD binding of AIF in the various examples below was performed using the following materials and procedures. AIF's NADH oxidase activity was determined as previously described by M. Miramar et al. (J Biol Chem, 2001). In brief, the NADH oxidase activity was measured at room temperature in substrate solution containing 250 μM NADH in air-saturated 50 mM Tris-HCl, pH 8.0. The decrease in absorbance at OD340 nm was monitored right after the addition of recombinant His-tagged AIF into the substrate solution. In situ redox activity of recombinant His-tagged AIF was performed as previously described by J. Gagne et al. (Nucleic Acids Res, 2008). The AIF protein was separated on a 10% native gel and then the gel was briefly washed in distilled water. The gel was equilibrated in 2,2′-Di-p-nitrophenyl-5-5′-diphenyl-3,3′ (3-3′-dimethoxy-4-4′difenilen)tetrazolium chloride (“NBT”) solution for 20 minutes in the dark followed by the addition of 1 mM NADH to NBT solution to reduce NBT. FAD binding to AIF was monitored at 13 μM concentration of His-tagged AIF by wave length scanning ranging from 250-800 nm using Beckman Coulter DU800 UV/Vis spectrophotometer.
FAD binding of His-WT-AIF and His-Pbm-AIF was determined by spectrophotometric wave length scanning of purified proteins. […]

[4] = system: Hq mouse cortical neuronal cultures; assay: AIF translocation to the nucleus in Hq cortical neurons; type: cell-based
Protocol: Unless otherwise set forth herein, immunocytochemistry, immunohistochemistry and confocal microscopy as referenced in the examples entailed the following materials and procedures. […] AIF was visualized by 2 μg/ml mouse anti-Flag/Cyt AffiniPure Donkey Anti-Mouse IgG or rabbit anti-AIF/Cy3 AffiniPure Donkey Anti-Rabbit IgG. Immunohistochemistry was performed using the antibody against Flag. Immunofluorescence analysis thereafter was carried out by using a LSM510 confocal laser scanning microscope (obtained from Carl Zeiss Microlmaging) as described by H. Wang et al. (J. Neurosci, 2004).
Again, AIF translocation to the nucleus was monitored two hours after NMDA (500 μM, 5 minutes) treatment sufficient to initiate parthanatos in wild-type cells.

PAR [5] = assay: co-immunoprecipitation with PAR in HeLa cells; type: cell-based
Protocol: The following experiment was performed to confirm whether AIF in fact binds to PAR in intact cells. Applicants exposed HeLa cells stably transduced with lentivirus C-terminal Flag-tagged mouse wild type AIF (WT-AIF-Flag) to MNNG, a DNA alkylating agent that activates PARP-1 and kills cells primarily through parthanatos. […] FIG. 2A comprises two side by side black and white photos of representative gels obtained by Applicants, showing the impact of MNNG upon these HeLa cells (left photo being HeLa cells without MNNG, and right photo being HeLa cells 2 hours after MNNG treatment at 50 μM for 15 min). […] FIG. 2B is a chart reporting the data regarding the relative intensity of the interaction pre and post MNNG for these experiments (*** indicates p<0.001).

Hq mice [6] = assay: NMDA excitotoxicity in striatum of Hq mice
Protocol: 1 μl Lentivirus (5×1010 T.U./ml) carrying WT-AIF-Flag, Pbm-AIF-Flag, or GFP was injected into striatum on both sides of the brain (rostral, 0.4 mm; lateral+/−1.7 mm; ventral 3.5 mm from bregma), and 1 μl AAV2 (1×1013 T.U./ml) carrying WT-AIF-Flag, Pbm-AIF-Flag or GFP was injected into CA1 in hippocampi on both sides of the brain (posterior, 2.0 mm; lateral+/−1.5 mm; ventral 1.5 mm from bregma) using a stereotactic frame (Kopf) (0.02 ml/min). The needle was left in place for an additional 8 minutes after injection. One week after the first injection, 20 nmol NMDA or normal saline in 0.8 μl was injected into the right and left striatum (0.02 μl/min), respectively. The needle was left in place for an additional 8 minutes after injection. Lesion volumes were assessed at 48 hours, 60 hours, or 168 hours after NMDA administration. At the indicated time point after the second injection, the mice were deeply anesthetized, and then perfused with saline and 4% paraformaldehyde. After postfixation and freezing in 20% glycerol-PBS, brain sections (30 μm) were obtained for Nissl staining and immunohistochemistry analysis.
Applicants next assessed whether replacement of WT-AIF-Flag or Pbm-AIF-Flag through lentiviral transduction would restore the sensitivity of Hq mice to NMDA excitotoxicity. […]

[7] = system: mitochondria isolated from cortical neurons; assay: in vitro AIF release from mitochondria of Hq cortical neurons; details: incubation with purified PAR for 30 minutes
Protocol: (§1) Unless otherwise set forth herein, mitochondria isolation and in vitro AIF release assays as referenced in the examples below were performed using the following materials and procedures. Mitochondria were prepared from HeLa cells and cortical neurons as follows by harvesting cells, re-suspending them in 2 ml MIB buffer (10 mM HEPES, pH 7.4, 300 mM sucrose, 1 mM EGTA), and homogenizing by 60 strokes with B type Dounce homogenizer. Nuclei were pelleted at 750×g for 5 minutes and mitochondria were spun down at 3,000×g for 10 minutes. Isolated mitochondria were dissolved in a minimum volume of sucrose buffer (10 mM HEPES, pH 7.4, 300 mM sucrose) and protein concentration was adjusted to 2 mg/ml. […] In vitro AIF release was carried out at room temperature for 30 minutes in assay buffer (20 mM HEPES, pH 7.4, 125 mM KCl, 2 mM K2HPO4, 4 mM MgCl2, 5 mM succinate, 2 mM rotenone, 3 μM ATP and 1 μM ADP) in the presence of 100 nM PAR and 1 mg/ml isolated mitochondria. […]
(§2) Next, Applicants used Hq cortical neurons transduced with WT-AIF-Flag or Pbm-AIF-Flag lentiviruses to determine whether PAR plays a direct role in mitochondrial AIF release. […] Three days after lentivirus infection, mitochondria were isolated and exposed to purified PAR to elicit in vitro AIF release by incubation with PAR for 30 minutes, and the levels of AIF were determined in the mitochondria and in the supernatant.

Hq cortical neurons = assay: NMDA excitotoxicity in Hq cortical neurons; type: cell-based, mouse; details: lentivirus-transduced Hq cortical neurons, NMDA 500 μM for 5 min, 24, 36, 48 hours
Protocol: HQ cortical neuron cells were transduced with lentivirus carrying WT-AIF-Flag or Pbm-AIF-Flag. Non-transduced neurons and GFP-lentivirus infected cells were used as negative controls. […] In those photos, blue indicates Hoechst 33342 staining and red indicates propidium iodide staining. […] The cytotoxicity in these Hq cortical neurons was measured at 24 hours, 36 hours, and 48 hours after NMDA (500 μM for 5 min) treatment, and the data for this is reported in the graph of FIG. 18B.

Hq MEFs = assay: MNNG cytotoxicity in Hq MEFs; type: cell-based, mouse; details: Hq MEFs, 24 hours after MNNG 500 μM for 15 min
Protocol: Further, the effect WT-AIF-Flag or Pbm-AIF-Flag on Hq MEF cell viability was determined 24 hours after MNNG (500 μM for 15 min) cytotoxicity with and without zVAD (100 μM), and the results of three trials is reported in FIG. 17B.

PAR [8] = assay: co-immunoprecipitation with PAR in Hq cortical neurons
Protocol: For co-immunoprecipitation, the post-nuclear cell extracts, which is the fraction prepared from whole cell lysates after removing nuclear proteins, were isolated in hypotonic buffer as previously described by S. Andrabi et al., and then incubated overnight with an antibody against PAR in the presence of protein A/G Sepharose (obtained from Santa Cruz Biotechnology, of Santa Cruz, Calif.), followed by immunoblot analysis with mouse anti-Flag antibody (obtained from Sigma). The proteins were separated on denaturing polyacrylamide gel electrophoresis (SDS-PAGE) and transferred to nitrocellulose membrane. […] After washing, the immune complexes were detected by the SuperSignal West Pico Chemiluminescent Substrate. The integrity of the nuclear and postnuclear subcellular fractions was determined by monitoring histone and MnSOD immunoreactivity, respectively.
To determine whether Pbm-AIF fails to bind to PAR in cultured cortical neurons, neuronal cultures were transduced by lentivirus with WT-AIF-Flag or Flag-tagged Pbm-AIF (“Pbm-AIF-Flag”). […] AIF was translocation to the nucleus for each neuron culture was monitored 2 hours after administration of NMDA (500 μM NMDA for 5 minutes). […]

[9] = system: mitochondria of HeLa cells; assay: in vitro AIF release from mitochondria of HeLa cells; details: purified PAR, transiently transfected HeLa cells
Protocol: as §1, §2

HeLa cells = assay: AIF nuclear translocation in HeLa cells after MNNG; type: cell-based; details: MNNG 50 μM for 15 minutes, confocal image analysis
Protocol: Unless otherwise set forth herein, immunocytochemistry, immunohistochemistry and confocal microscopy as referenced in the examples entailed the following materials and procedures. For immunocytochemistry, cells were fixed 2 hours after treatment with 4% paraformaldehyde, permeabilized with 0.05% Triton X-100, and blocked with 3% bovine serum albumin in PBS. AIF was visualized by 2 μg/ml mouse anti-Flag/Cyt AffiniPure Donkey Anti-Mouse IgG or rabbit anti-AIF/Cy3 AffiniPure Donkey Anti-Rabbit IgG. Immunohistochemistry was performed using the antibody against Flag. Immunofluorescence analysis thereafter was carried out by using a LSM510 confocal laser scanning microscope (obtained from Carl Zeiss Microlmaging) as described by H. Wang et al. (J. Neurosci, 2004).

Hq mice [10] = assay: NMDA excitotoxicity in hippocampal CA1 region of Hq mice; type: in vivo, mouse; details: AAV2 in CA1, 60 hours after NMDA
Protocol: Seven days following virus injection, Applicants injected NMDA into the right CA1 region and saline into the left CA1 region, and then assessed CA1 lesion volume 60 hours later. […] FIG. 20B is an array of six representative Nissl staining photos taken 60 hours post NMDA injection, while FIG. 20C is a graph of the experimental data obtained for lesion volume percentages.

| Molecule | NADH oxidase activity [1] | PAR binding in saturation binding experiments (PAR [2]) | DNA-binding properties (DNA) | FAD binding properties [3] | translocation to the nucleus after staurosporine ([4]; 100 nM staurosporine, 24 hours) | translocation to the nucleus after NMDA ([4]; two hours after NMDA (500 μM, 5 minutes), immunoblot of fractions or confocal image analysis) | change of interaction with PAR following MNNG treatment (PAR [5]; 2 hours after MNNG 50 μM for 15 min) | co-immunoprecipitation with PAR (PAR [5]; postnuclear fractions, non-MNNG- and MNNG-treated HeLa cells) | sensitivity to NMDA excitotoxicity (lesion volume) (Hq mice [6]; lentivirus in striatum, NMDA 20 nmol, 48 hours or 60 hours) | survival after the NMDA injection (Hq mice [6]; lentivirus-injected Hq mice, WT-AIF-Flag with one exception) [h] | PAR-induced release from mitochondria [7] | effect on susceptibility to NMDA excitotoxicity (Hq cortical neurons) | effect on MNNG-induced cell death (Hq MEFs) | change of interaction with PAR following NMDA treatment (PAR [8]; 2 hours after 500 μM NMDA for 5 minutes) | co-immunoprecipitation with PAR (PAR [8]; postnuclear fractions, non-NMDA- and NMDA-treated cultures) | PAR-induced release from mitochondria [9] | nuclear translocation after MNNG (HeLa cells) | CA1 lesion volume (Hq mice [10]) |
| --- | --- | --- | --- | --- | --- | --- | --- | --- | --- | --- | --- | --- | --- | --- | --- | --- | --- | --- |
| B1 | no significant change in NADH oxidase activity | much less (and virtually linear) binding | comparable | no significant difference | – | – | – | – | – | – | – | – | – | – | – | – | – | – |
| B2 | – | – | – | – | translocate from the mitochondria to the nucleus | translocated to the nucleus; also recorded: observed in the nucleus | significantly increased | co-immunoprecipitated with PAR in resting cells | restored sensitivity to NMDA excitotoxicity | < 168 | induced the release | restored Hq cortical neuron susceptibility to NMDA excitotoxicity | restored their susceptibility to MNNG toxicity | significantly increased | pulled down | induced the release | translocated to the nucleus 4 hours following MNNG treatment | large lesion volume |
